Measurements from PMC6771040, “Bispecific GRPR-Antagonistic Anti-PSMA/GRPR Heterodimer for PET and SPECT Diagnostic Imaging of Prostate Cancer” (Cancers, 2019).

Experiments:
[1] = system: PC3-PIP xenografts (PSMA and GRPR expressing); assay: in vivo; design: species or system BALB/c nu/nu mice; details: female, BALB/c nu/nu, mouse, iv, 50 pmol/mouse
Procedure: (§1) All animal experiments were planned and performed in accordance with the Swedish national legislation on the protection of laboratory animals and the study plans were approved by the Ethics Committee for Animal Research in Uppsala. Euthanasia was performed by the intraperitoneal injection of a ketamine-xylazine (Ketalar-Rompun) solution (200 mg/kg ketamine/Ketalar and 20 mg/kg xylazine/Rompun), and all efforts were made to minimize suffering. Prior to implantation, female outbred BALB/c nu/nu mice (n = 30) were quarantined for 1 week. The average animal weight at the time of the experiment was 16 ± 1 g. Xenografts expressing both PSMA and GRPR were established by the subcutaneous injection of ~0.8 × 10^7 PC3-PIP cells/mouse. Tumors were grown for 7 days and the average tumor weight at the time of the experiment was 0.3 ± 0.1 g. Before the experiments, animals were randomized into groups of four. Blood, salivary glands, lung, liver, spleen, pancreas, stomach, small intestines, kidneys, muscle, bone, and tumor samples were collected for radioactivity measurements. The gastrointestinal tract with content and the rest of the carcass were also collected. The activity of samples was measured together with the injection standard.
(§2) To evaluate the biodistribution over time, three groups of mice were intravenously co-injected through the tail vein with ^111In-6 and ^68Ga-6 (300 kBq for ^68Ga-6 and 40 kBq for ^111In-6) and sacrificed 1, 3, and 24 h pi. The total injected peptide mass was adjusted to 50 pmol/mouse.

[2] = in vivo; design: species or system BALB/c nu/nu mice; details: female, BALB/c nu/nu, mouse, iv, 50 pmol/mouse, total radioactivity, Tumor-to-organ ratio
Procedure: as §1, §2

[3] = system: PSMA; details: 1 h pi; cited from earlier work
[4] = target: T1, PSMA (Homo sapiens, UniProt Q04609); assay: Competitive binding assay (IC50) towards PSMA on PC3-PIP cells
T1 construct: expressed in transfected cells; host or cells: PC3-PIP cells (PC-3 derived, kept under puromycin selection; obtained from Dr. Warren Heston, Cleveland Clinic)
Procedure: (§3) The half-maximal inhibitory concentration (IC50) values towards PSMA and GRPR were determined for ^natIn-6 using PC3-PIP cells. ^111In-PSMA-617 was used as a displacement radioligand for PSMA and ^111In-DOTA-PEG2-RM26 was used for GRPR, respectively. Due to the presence of both targets on PC3-PIP cells, in each experiment, the secondary target was blocked with either 1 mM solution of NOTA-PEG6-RM26 or 2 mM PSMA-11. For comparison, the IC50 values were determined for the corresponding monomers towards PSMA and GRPR under the same experimental conditions. Briefly, cell monolayers were incubated with the radioligand (1 nM) at 4 °C for 5 h in the presence of increasing concentrations of ^natIn-loaded conjugates (0–540 nM for GRPR-targeting analogs, and 0–7500 nM for PSMA-targeting, respectively). Following incubation, cells were collected and the cell-associated radioactivity was measured in an automated gamma-counter. The IC50 values were calculated by nonlinear regression using GraphPad Prism software (GraphPad Software Inc., San Diego, CA, USA).

[5] = target: GRPR (Homo sapiens, UniProt P30550)
Procedure: as §3

Sequence of GRPR (P30550 whole entry): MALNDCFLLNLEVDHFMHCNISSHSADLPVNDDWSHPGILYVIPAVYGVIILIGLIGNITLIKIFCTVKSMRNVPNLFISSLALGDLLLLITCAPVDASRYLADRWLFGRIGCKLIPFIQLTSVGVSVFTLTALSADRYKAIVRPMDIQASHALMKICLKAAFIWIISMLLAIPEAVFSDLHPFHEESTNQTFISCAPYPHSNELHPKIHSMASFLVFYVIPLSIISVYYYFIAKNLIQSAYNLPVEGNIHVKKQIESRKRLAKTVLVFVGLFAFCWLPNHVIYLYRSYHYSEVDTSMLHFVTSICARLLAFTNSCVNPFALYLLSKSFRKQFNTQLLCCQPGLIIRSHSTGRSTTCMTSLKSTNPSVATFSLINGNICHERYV
T1 sequence (Q04609 whole entry): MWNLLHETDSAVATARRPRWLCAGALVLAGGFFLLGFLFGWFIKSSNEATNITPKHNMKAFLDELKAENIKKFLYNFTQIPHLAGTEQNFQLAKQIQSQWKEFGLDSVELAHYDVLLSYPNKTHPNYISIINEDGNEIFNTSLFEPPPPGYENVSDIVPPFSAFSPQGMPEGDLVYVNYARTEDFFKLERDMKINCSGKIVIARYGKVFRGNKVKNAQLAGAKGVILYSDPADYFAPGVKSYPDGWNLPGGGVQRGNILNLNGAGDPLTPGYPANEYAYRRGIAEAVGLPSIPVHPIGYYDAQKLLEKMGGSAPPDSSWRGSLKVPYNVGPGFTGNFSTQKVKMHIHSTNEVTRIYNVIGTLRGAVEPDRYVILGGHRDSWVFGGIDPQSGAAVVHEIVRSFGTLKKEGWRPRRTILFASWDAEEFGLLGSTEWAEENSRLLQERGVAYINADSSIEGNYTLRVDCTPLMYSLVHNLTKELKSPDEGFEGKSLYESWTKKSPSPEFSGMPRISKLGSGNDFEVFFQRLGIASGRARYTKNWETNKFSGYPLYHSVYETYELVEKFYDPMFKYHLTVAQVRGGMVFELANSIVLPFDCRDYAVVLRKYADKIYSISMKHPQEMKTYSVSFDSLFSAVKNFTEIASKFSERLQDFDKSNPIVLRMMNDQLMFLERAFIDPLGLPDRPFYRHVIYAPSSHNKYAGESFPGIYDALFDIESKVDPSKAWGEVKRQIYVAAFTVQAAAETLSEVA

CC(C)C[C@H](NC(=O)C[C@H](O)[C@H](CC(C)C)NC(=O)[C@H](Cc1c[nH]cn1)NC(=O)CNC(=O)[C@@H](NC(=O)[C@H](C)NC(=O)[C@H](Cc1c[nH]c2ccccc12)NC(=O)[C@H](CCC(N)=O)NC(=O)[C@@H](Cc1ccccc1)NC(=O)CCOCCOCCOCCOCCOCCOCCNC(=O)[C@H](CCCCNC(=O)CN1CCN(CC(=O)O)CCN(CC(=O)O)CC1)NC(=O)CCCCCCCNC(=O)CC[C@H](NC(=O)N[C@@H](CCC(=O)O)C(=O)O)C(=O)O)C(C)C)C(N)=O [68Ga-6, metal not drawn]
Tumor-to-organ ratio, Blood ([1]; 1 h): 24±3 | Tumor-to-organ ratio, Bone ([1]; 1 h): 30±11 | Tumor-to-organ ratio, Kidneys ([1]; 1 h): 1.2±0.1 | Tumor-to-organ ratio, Liver ([1]; 1 h): 5.9±0.9 | Tumor-to-organ ratio, Lung ([1]; 1 h): 15±3 | Tumor-to-organ ratio, Muscle ([1]; 1 h): 78±28 | Tumor-to-organ ratio, Pancreas ([1]; 1 h): 4.4±0.6 | Tumor-to-organ ratio, Salivary glands ([1]; 1 h): 43±8 | Tumor-to-organ ratio, Small intestine ([1]; 1 h): 11±3 | Tumor-to-organ ratio, Spleen ([1]; 1 h): 16±4 | Tumor-to-organ ratio, Stomach ([1]; 1 h): 10±4 | Tumor-to-organ ratio, Blood ([1]; 3 h): 44±6 | Tumor-to-organ ratio, Bone ([1]; 3 h): 67±21 | Tumor-to-organ ratio, Kidneys ([1]; 3 h): 0.9±0.2 | Tumor-to-organ ratio, Liver ([1]; 3 h): 4±1 | Tumor-to-organ ratio, Lung ([1]; 3 h): 28±17 | Tumor-to-organ ratio, Muscle ([1]; 3 h): 128±57 | Tumor-to-organ ratio, Pancreas ([1]; 3 h): 18±6 | Tumor-to-organ ratio, Salivary glands ([1]; 3 h): 43±8 | Tumor-to-organ ratio, Small intestine ([1]; 3 h): 33±27 | Tumor-to-organ ratio, Spleen ([1]; 3 h): 11±1 | Tumor-to-organ ratio, Stomach ([1]; 3 h): 45±39

CC(C)C[C@H](NC(=O)C[C@H](O)[C@H](CC(C)C)NC(=O)[C@H](Cc1c[nH]cn1)NC(=O)CNC(=O)[C@@H](NC(=O)[C@H](C)NC(=O)[C@H](Cc1c[nH]c2ccccc12)NC(=O)[C@H](CCC(N)=O)NC(=O)[C@@H](Cc1ccccc1)NC(=O)CCOCCOCCOCCOCCOCCOCCNC(=O)[C@H](CCCCNC(=O)CN1CCN(CC(=O)O)CCN(CC(=O)O)CC1)NC(=O)CCCCCCCNC(=O)CC[C@H](NC(=O)N[C@@H](CCC(=O)O)C(=O)O)C(=O)O)C(C)C)C(N)=O [111In-6, metal not drawn]
Tumor-to-organ ratio, Bone ([1]; 1 h): 75±50 | Tumor-to-organ ratio, Liver ([1]; 1 h): 22±4 | Tumor-to-organ ratio, Lung ([1]; 1 h): 32±3 | Tumor-to-organ ratio, Spleen ([1]; 1 h): 44±6 | Tumor-to-organ ratio, Blood ([1]; 3 h): 115±13 | Tumor-to-organ ratio, Liver ([1]; 3 h): 20±2 | Tumor-to-organ ratio, Lung ([1]; 3 h): 64±30 | Tumor-to-organ ratio, Salivary glands ([1]; 3 h): 93±10 | Tumor-to-organ ratio, Spleen ([1]; 3 h): 59±16 | tissue to tissue ratio at 1 h ([2]; Blood): 30 ± 4 | tissue to tissue ratio at 24 h ([2]; Blood): 192 ± 66 | tissue to tissue ratio at 3 h ([2]; Bone): 52 ± 22 | tissue to tissue ratio at 24 h ([2]; Bone): 19 ± 15 | tissue to tissue ratio at 1 h ([2]; Kidneys): 1.2 ± 0.2 | tissue to tissue ratio at 3 h ([2]; Kidneys): 1.4 ± 0.2 | tissue to tissue ratio at 24 h ([2]; Kidneys): 0.6 ± 0.1 | tissue to tissue ratio at 24 h ([2]; Liver): 4.8 ± 0.8 | tissue to tissue ratio at 24 h ([2]; Lung): 34 ± 11 | tissue to tissue ratio at 1 h ([2]; Muscle): 101 ± 25 | tissue to tissue ratio at 3 h ([2]; Muscle): 210 ± 90 | tissue to tissue ratio at 24 h ([2]; Muscle): 72 ± 59 | tissue to tissue ratio at 1 h ([2]; Pancreas): 3.5 ± 0.8 | tissue to tissue ratio at 3 h ([2]; Pancreas): 21 ± 1 | tissue to tissue ratio at 24 h ([2]; Pancreas): 16 ± 2 | tissue to tissue ratio at 1 h ([2]; Salivary glands): 72 ± 13 | tissue to tissue ratio at 24 h ([2]; Salivary glands): 26 ± 4 | tissue to tissue ratio at 1 h ([2]; Small intestine): 12 ± 4 | tissue to tissue ratio at 3 h ([2]; Small intestine): 42 ± 9 | tissue to tissue ratio at 24 h ([2]; Small intestine): 27 ± 6 | tissue to tissue ratio at 24 h ([2]; Spleen): 30 ± 16 | tissue to tissue ratio at 1 h ([2]; Stomach): 10 ± 3 | tissue to tissue ratio at 3 h ([2]; Stomach): 29 ± 12 | tissue to tissue ratio at 24 h ([2]; Stomach): 61 ± 52

O=C([O-])CN(CCN(CC(=O)[O-])Cc1cc(CCC(=O)NCCCCCC(=O)NCCCC[C@H](NC(=O)N[C@@H](CCC(=O)O)C(=O)O)C(=O)O)ccc1[O-])Cc1cc(CCC(=O)O)ccc1[O-].[68Ga+3].[OH3+] [^68Ga-PSMA-11]
activity uptake in the kidneys relative to tumors [3]: 20 fold

O=C([O-])CN1CCN(CC(=O)[O-])CCN(CC(=O)NC[C@H]2CC[C@H](C(=O)N[C@@H](Cc3ccc4ccccc4c3)C(=O)NCCCC[C@H](NC(=O)N[C@@H](CCC(=O)O)C(=O)O)C(=O)O)CC2)CCN(CC(=O)[O-])CC1.[68Ga+3] [^68Ga-PSMA-617]
activity uptake in the kidneys relative to tumors [3]: 8 fold

CC(C)C[C@H](NC(=O)C[C@H](O)[C@H](CC(C)C)NC(=O)[C@H](Cc1c[nH]cn1)NC(=O)CNC(=O)[C@@H](NC(=O)[C@H](C)NC(=O)[C@H](Cc1c[nH]c2ccccc12)NC(=O)[C@H](CCC(N)=O)NC(=O)[C@@H](Cc1ccccc1)NC(=O)CCOCCOCCOCCOCCOCCOCCNC(=O)[C@H](CCCCNC(=O)CN1CCN(CC(=O)O)CCN(CC(=O)O)CC1)NC(=O)CCCCCCCNC(=O)CC[C@H](NC(=O)N[C@@H](CCC(=O)O)C(=O)O)C(=O)O)C(C)C)C(N)=O [compound 6, Glu-Urea-Glu-Aoc-Lys(NOTA)-(PEG)6-RM26]
fold change of IC50 for PSMA, heterodimer vs monomer ([4]; dimerization effect): 5 fold

CC(C)C[C@H](NC(=O)C[C@H](O)[C@H](CC(C)C)NC(=O)[C@H](Cc1c[nH]cn1)NC(=O)CNC(=O)[C@@H](NC(=O)[C@H](C)NC(=O)[C@H](Cc1c[nH]c2ccccc12)NC(=O)[C@H](CCC(N)=O)NC(=O)[C@@H](Cc1ccccc1)NC(=O)CCOCCOCCOCCOCCOCCOCCNC(=O)[C@H](CCCCNC(=O)CN1CCN(CC(=O)O)CCN(CC(=O)O)CC1)NC(=O)CCCCCCCNC(=O)CC[C@H](NC(=O)N[C@@H](CCC(=O)O)C(=O)O)C(=O)O)C(C)C)C(N)=O [natIn-6, metal not drawn]
fold change of IC50 for GRPR, heterodimer vs monomer ([5]; dimerization effect): 10 fold | IC50 ([5]; read-out: IC50 towards GRPR, PC3-PIP cells, 4 °C, 5 h, PSMA blocked, natIn-loaded conjugates): 4 ± 1 nM | IC50 ([4]; read-out: IC50 towards PSMA, PC3-PIP cells, 4 °C, 5 h, radioligand 111In-PSMA-617, GRPR blocked, natIn-loaded conjugates): 824 ± 230 nM
